# In patent publication US20210283212A1 (RA PHARMACEUTICALS, published 2021):
# Starred links: 1 amine or outer side, 2 acyl side, 3 side chain; linkers in the order of their positions; H or OH if unused. Positions of bridges follow the written chain, without caps; N, C: chain ends. Non-standard residues stand in square brackets, D forms with d. Primed or numbered codes have the meaning given here. *: point of attachment. mXylyl(3) = bridging moiety between the two residues given in brackets; mXylyl″ = bridging moiety between the two marked residues; Trp(7-aza) = N[C@@H](Cc1c[nH]c2ncccc12)C(=O)O; Phe(3-Cl) = N[C@@H](Cc1cccc(Cl)c1)C(=O)O; Tiq1c(1S) = O=C(O)[C@H]1NCCc2ccccc21; pXylylene = c1cc(C[*:2])ccc1C[*:1]; dPhg = N[C@@H](C(=O)O)c1ccccc1; Phg = N[C@H](C(=O)O)c1ccccc1; Tle = CC(C)(C)[C@H](N)C(=O)O; NMeS = CN[C@@H](CO)C(=O)O; hCys = N[C@@H](CCS)C(=O)O; Heptanoyl = CCCCCCC(=O)*; Nle = CCCC[C@H](N)C(=O)O; Pra = C#CC[C@H](N)C(=O)O; Nva = CCC[C@H](N)C(=O)O; Sar = CNCC(=O)O
# B1: R3104 (peptide)
# peptide: Ac-[Nva][hCys][Phg]T[Trp(7-aza)]EY[NMeS]HC[Nva]-NH2
# modifications: linker 2-10 via pXylylene
# SMILES: CCC[C@H](NC(=O)[C@@H]1CSCc2ccc(cc2)CSCC[C@H](NC(=O)[C@H](CCC)NC(C)=O)C(=O)N[C@@H](c2ccccc2)C(=O)N[C@@H]([C@@H](C)O)C(=O)N[C@@H](Cc2c[nH]c3ncccc23)C(=O)N[C@@H](CCC(=O)O)C(=O)N[C@@H](Cc2ccc(O)cc2)C(=O)N(C)[C@@H](CO)C(=O)N[C@@H](Cc2c[nH]cn2)C(=O)N1)C(N)=O
# B2: R3106 (peptide)
# peptide: Ac-[Nva]C[Phg]T[Trp(7-aza)]EY[NMeS]H[hCys][Nva]-NH2
# modifications: linker 2-10 via pXylylene
# SMILES: CCC[C@H](NC(=O)[C@@H]1CCSCc2ccc(cc2)CSC[C@H](NC(=O)[C@H](CCC)NC(C)=O)C(=O)N[C@@H](c2ccccc2)C(=O)N[C@@H]([C@@H](C)O)C(=O)N[C@@H](Cc2c[nH]c3ncccc23)C(=O)N[C@@H](CCC(=O)O)C(=O)N[C@@H](Cc2ccc(O)cc2)C(=O)N(C)[C@@H](CO)C(=O)N[C@@H](Cc2c[nH]cn2)C(=O)N1)C(N)=O
# B3: R3108 (peptide)
# peptide: Ac-[Nva][hCys][Phg]T[Trp(7-aza)]EY[NMeS]H[hCys][Nva]-NH2
# modifications: linker 2-10 via pXylylene
# SMILES: CCC[C@H](NC(=O)[C@@H]1CCSCc2ccc(cc2)CSCC[C@H](NC(=O)[C@H](CCC)NC(C)=O)C(=O)N[C@@H](c2ccccc2)C(=O)N[C@@H]([C@@H](C)O)C(=O)N[C@@H](Cc2c[nH]c3ncccc23)C(=O)N[C@@H](CCC(=O)O)C(=O)N[C@@H](Cc2ccc(O)cc2)C(=O)N(C)[C@@H](CO)C(=O)N[C@@H](Cc2c[nH]cn2)C(=O)N1)C(N)=O
# B4: R3000 (peptide)
# peptide: Ac-[Nva]CYKNYH[Trp(7-aza)]EYP[Tle]Y-NH2
# SMILES: CCC[C@H](NC(C)=O)C(=O)N[C@@H](CS)C(=O)N[C@@H](Cc1ccc(O)cc1)C(=O)N[C@@H](CCCCN)C(=O)N[C@@H](CC(N)=O)C(=O)N[C@@H](Cc1ccc(O)cc1)C(=O)N[C@@H](Cc1c[nH]cn1)C(=O)N[C@@H](Cc1c[nH]c2ncccc12)C(=O)N[C@@H](CCC(=O)O)C(=O)N[C@@H](Cc1ccc(O)cc1)C(=O)N1CCC[C@H]1C(=O)N[C@H](C(=O)N[C@@H](Cc1ccc(O)cc1)C(N)=O)C(C)(C)C
# B5: R3101 (peptide)
# peptide: VCGTWEYSHGCV
# modifications: not fully specified; [mXylyl(2,10)]Ac-Nvl-C-Phg-T-azaTrp-E-Y-(N-Me)S-H-G-C-Nvl-NH2
# Biological target: human C5 protein (human, UniProt P01031 19-673; P01031 678-1676)
# Assay: cell-based or functional assay
row,Binder,"Avg. IC50, human hemolysis assay"
1,Ac-CVARFCD[Tle]Y[Trp(7-aza)]EYP[Phg][Nva]-NH2 (linker 1-6 via mXylyl(3)) [R3150],32 nM
2,Ac-C[Phg]T[Trp(7-aza)]EY[NMeS]HC[Nva]P[Nva]-NH2 (linker 1-9 via mXylyl″) [R3014],1420 nM
3,Ac-Y[Nva]C[Phg]T[Trp(7-aza)]EY[NMeS]HC[Nva]-NH2 (linker 3-11 via mXylyl(3)) [R3113],> 5000 nM
4,B1,> 2000 nM
5,Ac-CVERFCD[Tle]YWEF-NH2 (linker 1-6 via mXylyl(3)) [R3138],87.2 nM
6,Ac-[Nva]C[Phg]T[Trp(7-aza)]E[Phe(3-Cl)][NMeS]AC[Nva]-NH2 (linker 2-10 via mXylyl(3)) [R3134],> 5000 nM
7,Ac-[Nva]C[Phg]T[Trp(7-aza)]EY[NMeS]HC[Nva]P-NH2 (linker 2-10 via mXylyl″) [R3011],112 nM
8,Ac-CVERFCDVYWEF[Pra]-NH2 (linker 1-6 via mXylyl(3)) [R3147],138 nM
9,Ac-C[Tle]ERFCD[Tle]YWEF-NH2 (linker 1-6 via mXylyl(3)) [R3139],97.2 nM
10,Ac-[Nva]C[Phg]T[Trp(7-aza)]EYPHC[Nva]-NH2 (linker 2-10 via mXylyl(3)) [R3102],978 nM
11,Ac-CAERFCD[Tle]YWEYP[dPhg][Nva]-NH2 (linker 1-6 via mXylyl(3)) [R3149],13.6 nM
12,B2,> 5000 nM
13,Ac-CVERFCDVYWEFP-NH2 (linker 1-6 via mXylyl(3)) [R3141],24.5 nM
14,"CVERFCDGYWEYP ([mXylyl(1,6)]Ac-C-V-E-R-F-C-D-Tbg-Y-W-E-Y-P-NH2) [R3143]",18.6 nM
15,Ac-CVERFCDVY[Trp(7-aza)]EYP-NH2 (linker 1-6 via mXylyl(3)) [R3142],44.6 nM
16,Ac-C[Tle]ERFCDVYWEF-NH2 (linker 1-6 via mXylyl(3)) [R3146],107 nM
17,Ac-CVERFCDVYWEYP-NH2 (linker 1-6 via mXylyl(3)) [R3140],17.9 nM
18,Ac-[Nva][hCys][Phg]T[Trp(7-aza)]EY[NMeS]HC[Nva]-NH2 (linker 2-10 via mXylyl(3)) [R3103],> 25000 nM
19,Ac-[Nva]C[Phg]T[Trp(7-aza)]EY[NMeS]HC[Nva]-NH2 (linker 2-10 via mXylyl″) [R3012],148 nM

row,Binder,"Avg. IC50, human hemolysis assay"
1,Ac-[Nva]C[Phg]T[Trp(7-aza)]EY[NMeS]HC-NH2 (linker 2-10 via mXylyl″) [R3013],344 nM
2,Ac-[Nva]C[Phg][dA][Trp(7-aza)]EY[NMeS]HC[Nva]-NH2 (linker 2-10 via mXylyl(3)) [R3133],> 75000 nM
3,B3,> 75000 nM
4,Ac-[Nva]C[Phg]T[Trp(7-aza)]EY[NMeS]H[hCys][Nva]-NH2 (linker 2-10 via mXylyl(3)) [R3105],> 5000 nM
5,Heptanoyl-C[dPhg]T[Trp(7-aza)]EY[NMeS]AC[Nva]-NH2 (linker 1-9 via mXylyl(3)) [R3137],> 100000 nM
6,Ac-[Nva]T[Phg]C[Trp(7-aza)]EY[NMeS]AC[Nva]-NH2 (linker 4-10 via mXylyl(3)) [R3111],> 5000 nM
7,Ac-CAERFCD[Tle]YWEYP[Phg][Nva]-NH2 (linker 1-6 via mXylyl(3)) [R3148],8.5 nM
8,B4,> 10000 nM
9,Ac-[Nva]CYNN[Tle]E[Trp(7-aza)]ECP[Phg][Tle]-NH2 (linker 2-10 via mXylyl(3)) [R3127],> 75000 nM
10,B5,> 100000 nM
11,Ac-CVARFCD[Tle]Y[Trp(7-aza)]EYP[dPhg][Nva]-NH2 (linker 1-6 via mXylyl(3)) [R3151],165 nM
12,Ac-[Nva]C[Phg]T[Trp(7-aza)]EY[NMeS][dA]C[Nva]-NH2 (linker 2-10 via mXylyl(3)) [R3135],> 25000 nM
13,Ac-[Nva]CYE[Sar][Tle]Y[Trp(7-aza)]E[Nva][Nva]PC-NH2 (linker 2-13 via mXylyl″) [R3010],> 100000 nM
14,Ac-[Nva]C[Tiq1c(1S)]T[Trp(7-aza)]EY[NMeS]HC[Nva]-NH2 (linker 2-10 via mXylyl(3)) [R3122],> 50000 nM
15,Heptanoyl-[Nva]C[dPhg]T[Trp(7-aza)]EY[NMeS]AC[Nva]-NH2 (linker 2-10 via mXylyl(3)) [R3136],> 50000 nM
16,Ac-[Nva][hCys][Phg]T[Trp(7-aza)]EY[NMeS]H[hCys][Nva]-NH2 (linker 2-10 via mXylyl(3)) [R3107],> 75000 nM
17,Ac-[Nva]CYE[Sar][Tle]Y[Trp(7-aza)]EC[Nva]P[Nva]-NH2 (linker 2-10 via mXylyl″) [R3009],> 100000 nM
18,Ac-[Nle]C[Phg]T[Trp(7-aza)]EY[NMeS]HC[Nva]-NH2 (linker 2-10 via mXylyl(3)) [R3112],> 5000 nM
19,Ac-[Nva]CYNN[Tle]E[Trp(7-aza)]ECP[Phg][Tle]-NH2 (cysteine pairing not given here) [R3126],> 3000 nM
